Reference: article doi:10.1101/2025.09.08.674988

Tests used:
[1] = biological target: FlAsH-labeled NS5B(Δ21)-FlAsH-His (Hepatitis C virus genotype 2a); experiment: FRAP on a supported lipid bilayer
dynamic light scattering = settings: other: dynamic light scattering
[2] = biological target: FlAsH-labeled NS5B(Δ21)-FlAsH-His (Hepatitis C virus genotype 2a); experiment: fluorescence polarisation
[3] = biological target: FlAsH-labeled NS5B(Δ21)-FlAsH-His (Hepatitis C virus genotype 2a); experiment: fluorescence polarisation; remark: listed apart in the source
[4] = biological target: FlAsH-labeled NS5B(Δ21)-FlAsH-His (Hepatitis C virus genotype 2a); experiment: fluorescence polarisation; remark: listed apart in the source
[5] = biological target: NS5B(Δ21)-FlAsH-His (Hepatitis C virus genotype 2a); experiment: dynamic light scattering

Substance: FlAsH-labeled NS5B(Δ21)-FlAsH-His (enzyme)
- Kd [1]: < 0.01 µM

Substance: NS5B(Δ21)-FlAsH-His
- K0.5 (dynamic light scattering): K0.5 ∼ 1.5 µM

Substance: NS5B(Δ21)-FlAsH-His (enzyme)
- Kd [2]: 0.56 µM
- Kd [3]: 1.1 µM
- Kd [4]: 1 µM
- Kd [5]: 0.75 µM
